B1: Ad3-S4/Kn (ligand)
chain: GSLEENIKVNTPLTKSNHSINLPIGNGLQIEQNKLCSKLGNGLTFDSSNSIALKNNTLWTGPKPEANCIIEYGKQNPDSKLTLILVKNGGIVNGYVTLMGASDYVNTLFKNKNVSINVELYFDATGHILPDSSSLKTDLELKYKQTADFSARGFMPSTTAYPFVLPNAGTHNENYIFGQCYYKASDGALFPLEVTVMLNKRLPDSRTSYVMTFLWSLNAGLAPETTQATLITSPFTFSYIREDD
notes: also called wild-type Ad3 fibers
B2: Ad3-S3/Kn (ligand)
chain: HSINLPIGNGLQIEQNKLCSKLGNGLTFDSSNSIALKNNTLWTGPKPEANCIIEYGKQNPDSKLTLILVKNGGIVNGYVTLMGASDYVNTLFKNKNVSINVELYFDATGHILPDSSSLKTDLELKYKQTADFSARGFMPSTTAYPFVLPNAGTHNENYIFGQCYYKASDGALFPLEVTVMLNKRLPDSRTSYVMTFLWSLNAGLAPETTQATLITSPFTFSYIREDD
notes: as for B1
B3: Ad3-S5/Kn (ligand)
chain: GSLQLKVGSGLTVDTTDGSLEENIKVNTPLTKSNHSINLPIGNGLQIEQNKLCSKLGNGLTFDSSNSIALKNNTLWTGPKPEANCIIEYGKQNPDSKLTLILVKNGGIVNGYVTLMGASDYVNTLFKNKNVSINVELYFDATGHILPDSSSLKTDLELKYKQTADFSARGFMPSTTAYPFVLPNAGTHNENYIFGQCYYKASDGALFPLEVTVMLNKRLPDSRTSYVMTFLWSLNAGLAPETTQATLITSPFTFSYIREDD
notes: as for B1
B4: Ad3-S6/Kn (ligand)
chain: GVLSLKCVNPLTTASGSLQLKVGSGLTVDTTDGSLEENIKVNTPLTKSNHSINLPIGNGLQIEQNKLCSKLGNGLTFDSSNSIALKNNTLWTGPKPEANCIIEYGKQNPDSKLTLILVKNGGIVNGYVTLMGASDYVNTLFKNKNVSINVELYFDATGHILPDSSSLKTDLELKYKQTADFSARGFMPSTTAYPFVLPNAGTHNENYIFGQCYYKASDGALFPLEVTVMLNKRLPDSRTSYVMTFLWSLNAGLAPETTQATLITSPFTFSYIREDD
notes: as for B1
B5: Ad3-S2/Kn (ligand)
chain: KLCSKLGNGLTFDSSNSIALKNNTLWTGPKPEANCIIEYGKQNPDSKLTLILVKNGGIVNGYVTLMGASDYVNTLFKNKNVSINVELYFDATGHILPDSSSLKTDLELKYKQTADFSARGFMPSTTAYPFVLPNAGTHNENYIFGQCYYKASDGALFPLEVTVMLNKRLPDSRTSYVMTFLWSLNAGLAPETTQATLITSPFTFSYIREDD
notes: as for B1
B6: K217E+F224S (protein)
chain: MKVSALKEKVSALKEKVSALKEKVSALKEKVSALKEGSGGGSGGGSGGGSNSIALKNNTLWTGPKPEANCIIEYGKQNPDSKLTLILVKNGGIVNGYVTLMGASDYVNTLFKNKNVSINVELYFDATGHILPDSSSLKTDLELEYKQTADSSARGFMPSTTAYPFVLPNAGTHNENYIFGQCYYKASDGALFPLEVTVMLNKRLPDSRTSYVMTFLWSLNAGLAPETTQATLITSPFTFSYIREDD

Target: T1, soluble CD46 (UniProt P15529 35-343)
T1 construct: also called sCD46
T1 sequence: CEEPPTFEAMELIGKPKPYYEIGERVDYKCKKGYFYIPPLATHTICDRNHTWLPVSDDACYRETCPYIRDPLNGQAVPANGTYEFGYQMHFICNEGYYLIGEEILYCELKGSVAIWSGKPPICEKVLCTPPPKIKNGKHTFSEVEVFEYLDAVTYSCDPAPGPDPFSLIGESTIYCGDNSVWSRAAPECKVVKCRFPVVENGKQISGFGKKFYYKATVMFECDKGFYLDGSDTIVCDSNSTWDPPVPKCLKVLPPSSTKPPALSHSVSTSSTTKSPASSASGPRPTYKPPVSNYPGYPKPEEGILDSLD
Assay: Western blot, soluble CD46 as probe, anti-CD46 mAb
Conditions: not given

Molecule | binding result
B1 | no binding
B2 | no binding
B3 | no binding
B4 | no binding
B5 | no binding

Tested on: polarized colon cancer T84 cells
Assay: Transepithelial electrical resistance (TEER) permeability assay
Type: cell-based
Conditions: dimeric affinity-enhanced mutants; TEER at 4 hours; N=3
Method: FIG. 5. Correlation of reduced DSG2 binding with the ability to open epithelial junctions. A) Transepithelial electrical resistance (TEER) measured on polarized colon cancer T84 cells. Cells were cultured in transwell chambers until the TEER was constant, i.e. tight junctions had formed. A total of 5 μg of dimeric Ad3 fiber knobs in PBS was then added for 1 hour to the apical chamber. TEER was measured at the indicated time points. N=6. For time points 1.5 and 4 hours the difference between JO-1 vs D261N and N186D was significant (p<0.01). The arrows indicate the addition and removal of Ad3 fiber knobs. B) Enhancement of irinotecan therapy. A total of 4×10^6 A549 cells were injected subcutaneously into CB17-SCID/beige mice. Once the tumor reached a volume of ˜100 mm^3 (day 15 after implantation), the mice were injected intravenously with 2 mg/kg JO-1, E299V, N186D, or PBS, followed by an intravenous injection of irinotecan (37.5 mg/kg) one hour later. The treatment was repeated on day 25. N=5. […] The difference between “irinotecan” vs “JO-1+irinotecan” was significant (p<0.01) from day 20 on.
FIG. 9. Analysis of dimeric Ad3 fiber knob mutants with increased affinity to DSG2. A) Competition of Ad3-GFP virus infection on HeLa cells with dimeric affinity-enhanced mutant Y250F and JO-1 (dimeric wt Ad3 fiber knob). The experimental setting is as described for FIG. 3C. left panel: percentage of GFP positive cells. Right panel: mean fluorescence intensity. N=3. The standard deviation was less than 10%. B) Competition of Ad3-GFP virus infection on HeLa cells by Ad3 knob mutants with enhanced DSG2 binding but without dimerization domain. 1.5×10^5 HeLa cells were seeded into 24 well plates. Cells were incubated with the Ad3 knob mutants at the increasing concentrations for one hour at room temperature. 100 pfu/cell of Ad3GFP virus were then added and GFP expression was analyzed 18 hours later. C) TEER on colon cancer T84 cells. The experimental setting was the same as for FIG. 5A. The TEER at 4 hours is shown. N=3.
A total of 5×10^5 T84 cells were seeded in 12 mm transwell inserts (PET membrane, with 0.4 μm pore size (Corning, N.Y.) and cultured for >14 days until transepithelial electrical resistance (TEER) was stable. Culture medium was changed every 2-3 days. The cells were exposed to DSG2 ligands (20 μg/ml) in adhesion medium (DMEM, 1% FBS, 2 mM MgCl2, 20 mM HEPES) for 15 min at room temperature and TEER was measured and calculated as described elsewhere (39).

Molecule | TEER compared to JO-1
B6 | significantly higher

From patent US20150246949A1, “Desmoglein 2 (DSG2) Binding Proteins and Uses Therefor” (UNIVERSITY OF WASHINGTON THROUGH ITS CENTER FOR …, priority 2012, published 2015)
